Measured values published in patent US20080138335A1 (Kyowa Kirin, published 2008).

The binders below were run against T1, CD40 expressed on Ramos [ATCC] cells (UniProt P25942 21-277, limits assumed) (assay: flow cytometry (FACS) on Ramos cells expressing CD40, R-PE anti-human antibody).
T1 construct: whole, on cells; Target of all flow cytometry and CD95 assays; endogenous CD40 on the Ramos cell line
T1 sequence (P25942 21-277 limits assumed): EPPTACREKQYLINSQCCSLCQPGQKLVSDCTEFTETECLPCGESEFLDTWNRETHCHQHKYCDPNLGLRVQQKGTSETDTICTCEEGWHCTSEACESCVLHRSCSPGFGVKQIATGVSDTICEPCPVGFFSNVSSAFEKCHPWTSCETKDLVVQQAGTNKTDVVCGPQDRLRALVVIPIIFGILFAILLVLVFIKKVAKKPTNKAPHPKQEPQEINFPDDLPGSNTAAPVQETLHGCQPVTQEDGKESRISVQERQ

Binder	binding result
4D11-G[1133] (antibody, V domains shown, also called IgG[1/1/3/3]; N5KG1133; not shown: human IgG1 heavy chain constant region, CH1 and hinge domains (EU 118-237), from vector N5KG1-Val Lark; human IgG3 heavy chain constant region, CH2 and CH3 domains (EU 238-446), from vector N5KG3) VH: QLQLQESGPGLLKPSETLSLTCTVSGGSISSPGYYGGWIRQPPGKGLEWIGSIYKSGSTYHNPSLKSRVTISVDTSKNQFSLKLSSVTAADTAVYYCTRPVVRYFGWFDPWGQGTLVTVSS VL: AIQLTQSPSSLSASVGDRVTITCRASQGISSALAWYQQKPGKAPKLLIYDASNLESGVPSRFSGSGSGTDFTLTISSLQPEDFATYYCQQFNSYPTFGQGTKVEIK	binds
4D11-G3[N392K] (antibody, V domains shown, One-amino acid variant of 4D11-G3; also called IgG3[N392K]; N5KG3-N392K; not shown: human IgG3 heavy chain constant region, from vector N5KG3) VH: QLQLQESGPGLLKPSETLSLTCTVSGGSISSPGYYGGWIRQPPGKGLEWIGSIYKSGSTYHNPSLKSRVTISVDTSKNQFSLKLSSVTAADTAVYYCTRPVVRYFGWFDPWGQGTLVTVSS VL: AIQLTQSPSSLSASVGDRVTITCRASQGISSALAWYQQKPGKAPKLLIYDASNLESGVPSRFSGSGSGTDFTLTISSLQPEDFATYYCQQFNSYPTFGQGTKVEIK	binds
4D11-G[3331] (antibody, V domains shown, also called IgG[3/3/3/1]; N5KG3331; not shown: human IgG3 heavy chain constant region, CH1, hinge and CH2 domains (EU 118-340), from vector N5KG3; human IgG1 heavy chain constant region, CH3 domain (EU 341-446), from vector N5KG1) VH: QLQLQESGPGLLKPSETLSLTCTVSGGSISSPGYYGGWIRQPPGKGLEWIGSIYKSGSTYHNPSLKSRVTISVDTSKNQFSLKLSSVTAADTAVYYCTRPVVRYFGWFDPWGQGTLVTVSS VL: AIQLTQSPSSLSASVGDRVTITCRASQGISSALAWYQQKPGKAPKLLIYDASNLESGVPSRFSGSGSGTDFTLTISSLQPEDFATYYCQQFNSYPTFGQGTKVEIK	binds
4D11-G[3311] (antibody, V domains shown, also called IgG[3/3/1/1]; N5KG3311; not shown: human IgG3 heavy chain constant region, CH1 and hinge domains (EU 118-237), from vector N5KG3; human IgG1 heavy chain constant region, CH2 and CH3 domains (EU 238-446), from vector N5KG1) VH: QLQLQESGPGLLKPSETLSLTCTVSGGSISSPGYYGGWIRQPPGKGLEWIGSIYKSGSTYHNPSLKSRVTISVDTSKNQFSLKLSSVTAADTAVYYCTRPVVRYFGWFDPWGQGTLVTVSS VL: AIQLTQSPSSLSASVGDRVTITCRASQGISSALAWYQQKPGKAPKLLIYDASNLESGVPSRFSGSGSGTDFTLTISSLQPEDFATYYCQQFNSYPTFGQGTKVEIK	binds
4D11-G3[M397V] (antibody, V domains shown, One-amino acid variant of 4D11-G3, made on N5KG3-4D11; also called N5KG3-M397V; 4D11-G[M397V]; not shown: human IgG3 heavy chain constant region, from vector N5KG3-4D11) VH: QLQLQESGPGLLKPSETLSLTCTVSGGSISSPGYYGGWIRQPPGKGLEWIGSIYKSGSTYHNPSLKSRVTISVDTSKNQFSLKLSSVTAADTAVYYCTRPVVRYFGWFDPWGQGTLVTVSS VL: AIQLTQSPSSLSASVGDRVTITCRASQGISSALAWYQQKPGKAPKLLIYDASNLESGVPSRFSGSGSGTDFTLTISSLQPEDFATYYCQQFNSYPTFGQGTKVEIK	binds
4D11-G3[E356D] (antibody, V domains shown, One-amino acid variant of 4D11-G3; also called IgG3-[E356D]; N5KG3-E356D; not shown: human IgG3 heavy chain constant region, from vector N5KG3) VH: QLQLQESGPGLLKPSETLSLTCTVSGGSISSPGYYGGWIRQPPGKGLEWIGSIYKSGSTYHNPSLKSRVTISVDTSKNQFSLKLSSVTAADTAVYYCTRPVVRYFGWFDPWGQGTLVTVSS VL: AIQLTQSPSSLSASVGDRVTITCRASQGISSALAWYQQKPGKAPKLLIYDASNLESGVPSRFSGSGSGTDFTLTISSLQPEDFATYYCQQFNSYPTFGQGTKVEIK	binds
4D11-G3[I422V] (antibody, V domains shown, One-amino acid variant of 4D11-G3; also called IgG3[I422V]; N5KG3-1422V; not shown: human IgG3 heavy chain constant region, from vector N5KG3) VH: QLQLQESGPGLLKPSETLSLTCTVSGGSISSPGYYGGWIRQPPGKGLEWIGSIYKSGSTYHNPSLKSRVTISVDTSKNQFSLKLSSVTAADTAVYYCTRPVVRYFGWFDPWGQGTLVTVSS VL: AIQLTQSPSSLSASVGDRVTITCRASQGISSALAWYQQKPGKAPKLLIYDASNLESGVPSRFSGSGSGTDFTLTISSLQPEDFATYYCQQFNSYPTFGQGTKVEIK	binds
4D11-G3[M358L] (antibody, V domains shown, One-amino acid variant of 4D11-G3; also called IgG3[M358L]; N5KG3-M358L; not shown: human IgG3 heavy chain constant region, from vector N5KG3) VH: QLQLQESGPGLLKPSETLSLTCTVSGGSISSPGYYGGWIRQPPGKGLEWIGSIYKSGSTYHNPSLKSRVTISVDTSKNQFSLKLSSVTAADTAVYYCTRPVVRYFGWFDPWGQGTLVTVSS VL: AIQLTQSPSSLSASVGDRVTITCRASQGISSALAWYQQKPGKAPKLLIYDASNLESGVPSRFSGSGSGTDFTLTISSLQPEDFATYYCQQFNSYPTFGQGTKVEIK	binds
4D11-G[3313] (antibody, V domains shown, also called IgG[3/3/1/3]; N5KG3313; not shown: human IgG3 heavy chain constant region, CH1 and hinge domains (EU 118-237), from vector N5KG3; human IgG1 heavy chain constant region, CH2 domain (EU 238-340), from vector N5KG1 by way of N5KG3311; human IgG3 heavy chain constant region, CH3 domain (EU 341-446), from vector N5KG3) VH: QLQLQESGPGLLKPSETLSLTCTVSGGSISSPGYYGGWIRQPPGKGLEWIGSIYKSGSTYHNPSLKSRVTISVDTSKNQFSLKLSSVTAADTAVYYCTRPVVRYFGWFDPWGQGTLVTVSS VL: AIQLTQSPSSLSASVGDRVTITCRASQGISSALAWYQQKPGKAPKLLIYDASNLESGVPSRFSGSGSGTDFTLTISSLQPEDFATYYCQQFNSYPTFGQGTKVEIK	binds
341-G2Ser[Q274K] (antibody, human IgG2, kappa, Made from the 341-G2Ser expression vector; also called N5KG2Ser-341-Q274K) heavy: QVQLQQSGPGLVKPSQTLSLTCAISGDSVSSNSATWNWIRQSPSRDLEWLGRTYYRSKWYRDYVGSVKSRIIINPDTSNNQFSLQLNSVTPEDTAIYYCTRAQWLGGDYPYYYSMDVWGQGTTVTVSSASTKGPSVFPLAPCSRSTSESTAALGCLVKDYFPEPVTVSWNSGALTSGVHTFPAVLQSSGLYSLSSVVTVPSSNFGTQTYTCNVDHKPSNTKVDKTVERKCCVECPPCPAPPVAGPSVFLFPPKPKDTLMISRTPEVTCVVVDVSHEDPEVKFNWYVDGVEVHNAKTKPREEQFNSTFRVVSVLTVVHQDWLNGKEYKCKVSNKGLPASIEKTISKTKGQPREPQVYTLPPSREEMTKNQVSLTCLVKGFYPSDIAVEWESNGQPENNYKTTPPMLDSDGSFFLYSKLTVDKSRWQQGNVFSCSVMHEALHNHYTQKSLSLSPGK light: not shown	binds

The remaining lines, values ahead:

binding result	Binder
binds	341-G [1/1/2/2] (antibody, also called IgG[1/1/2/2]; N5KG1122; not shown: human IgG1 heavy chain constant region, CH1 and hinge domains (EU 118-237), from vector N5KG1-Val Lark; human IgG2 heavy chain constant region, CH2 and CH3 domains (EU 238-446), from vector N5KG2) heavy: QVQLQQSGPGLVKPSQTLSLTCAISGDSVSSNSATWNWIRQSPSRDLEWLGRTYYRSKWYRDYVGSVKSRIIINPDTSNNQFSLQLNSVTPEDTAIYYCTRAQWLGGDYPYYYSMDVWGQGTTVTVSS VL: EIVLTQSPATLSLSPGERATLSCRASQSVSSYLAWYQQKPGQAPRLLIYDASNRATGIPARFSGSGSGTDFTLTISSLEPEDFAVYYCQQRSNTFGPGTKVDIK
binds	341-G [2/2/1/1] (antibody, also called IgG[2/2/1/1]; N5KG2211; not shown: human IgG2 heavy chain constant region, CH1 and hinge domains (EU 118-237), from vector N5KG2; human IgG1 heavy chain constant region, CH2 and CH3 domains (EU 238-446), from vector N5KG1) heavy: QVQLQQSGPGLVKPSQTLSLTCAISGDSVSSNSATWNWIRQSPSRDLEWLGRTYYRSKWYRDYVGSVKSRIIINPDTSNNQFSLQLNSVTPEDTAIYYCTRAQWLGGDYPYYYSMDVWGQGTTVTVSS VL: EIVLTQSPATLSLSPGERATLSCRASQSVSSYLAWYQQKPGQAPRLLIYDASNRATGIPARFSGSGSGTDFTLTISSLEPEDFAVYYCQQRSNTFGPGTKVDIK
binds	341-G2Ser[G327A] (antibody, human IgG2, kappa, Made from the 341-G2Ser expression vector; also called N5KG2Ser-341-G327A) heavy: QVQLQQSGPGLVKPSQTLSLTCAISGDSVSSNSATWNWIRQSPSRDLEWLGRTYYRSKWYRDYVGSVKSRIIINPDTSNNQFSLQLNSVTPEDTAIYYCTRAQWLGGDYPYYYSMDVWGQGTTVTVSSASTKGPSVFPLAPCSRSTSESTAALGCLVKDYFPEPVTVSWNSGALTSGVHTFPAVLQSSGLYSLSSVVTVPSSNFGTQTYTCNVDHKPSNTKVDKTVERKCCVECPPCPAPPVAGPSVFLFPPKPKDTLMISRTPEVTCVVVDVSHEDPEVQFNWYVDGVEVHNAKTKPREEQFNSTFRVVSVLTVVHQDWLNGKEYKCKVSNKALPASIEKTISKTKGQPREPQVYTLPPSREEMTKNQVSLTCLVKGFYPSDIAVEWESNGQPENNYKTTPPMLDSDGSFFLYSKLTVDKSRWQQGNVFSCSVMHEALHNHYTQKSLSLSPGK light: not shown
binds	341-G2Ser[T339A] (antibody, human IgG2, kappa, Made from the 341-G2Ser expression vector; also called N5KG2Ser-341-T339A) heavy: QVQLQQSGPGLVKPSQTLSLTCAISGDSVSSNSATWNWIRQSPSRDLEWLGRTYYRSKWYRDYVGSVKSRIIINPDTSNNQFSLQLNSVTPEDTAIYYCTRAQWLGGDYPYYYSMDVWGQGTTVTVSSASTKGPSVFPLAPCSRSTSESTAALGCLVKDYFPEPVTVSWNSGALTSGVHTFPAVLQSSGLYSLSSVVTVPSSNFGTQTYTCNVDHKPSNTKVDKTVERKCCVECPPCPAPPVAGPSVFLFPPKPKDTLMISRTPEVTCVVVDVSHEDPEVQFNWYVDGVEVHNAKTKPREEQFNSTFRVVSVLTVVHQDWLNGKEYKCKVSNKGLPASIEKTISKAKGQPREPQVYTLPPSREEMTKNQVSLTCLVKGFYPSDIAVEWESNGQPENNYKTTPPMLDSDGSFFLYSKLTVDKSRWQQGNVFSCSVMHEALHNHYTQKSLSLSPGK light: not shown
binds	341-G2Ser[V309L] (antibody, human IgG2, kappa, Made from the 341-G2Ser expression vector; also called N5KG2Ser-341-V309L) heavy: QVQLQQSGPGLVKPSQTLSLTCAISGDSVSSNSATWNWIRQSPSRDLEWLGRTYYRSKWYRDYVGSVKSRIIINPDTSNNQFSLQLNSVTPEDTAIYYCTRAQWLGGDYPYYYSMDVWGQGTTVTVSSASTKGPSVFPLAPCSRSTSESTAALGCLVKDYFPEPVTVSWNSGALTSGVHTFPAVLQSSGLYSLSSVVTVPSSNFGTQTYTCNVDHKPSNTKVDKTVERKCCVECPPCPAPPVAGPSVFLFPPKPKDTLMISRTPEVTCVVVDVSHEDPEVQFNWYVDGVEVHNAKTKPREEQFNSTFRVVSVLTVLHQDWLNGKEYKCKVSNKGLPASIEKTISKTKGQPREPQVYTLPPSREEMTKNQVSLTCLVKGFYPSDIAVEWESNGQPENNYKTTPPMLDSDGSFFLYSKLTVDKSRWQQGNVFSCSVMHEALHNHYTQKSLSLSPGK light: not shown
binds	341-G2Ser[F300Y] (antibody, human IgG2, kappa, Made from the 341-G2Ser expression vector; also called N5KG2Ser-341-F300Y) heavy: QVQLQQSGPGLVKPSQTLSLTCAISGDSVSSNSATWNWIRQSPSRDLEWLGRTYYRSKWYRDYVGSVKSRIIINPDTSNNQFSLQLNSVTPEDTAIYYCTRAQWLGGDYPYYYSMDVWGQGTTVTVSSASTKGPSVFPLAPCSRSTSESTAALGCLVKDYFPEPVTVSWNSGALTSGVHTFPAVLQSSGLYSLSSVVTVPSSNFGTQTYTCNVDHKPSNTKVDKTVERKCCVECPPCPAPPVAGPSVFLFPPKPKDTLMISRTPEVTCVVVDVSHEDPEVQFNWYVDGVEVHNAKTKPREEQFNSTYRVVSVLTVVHQDWLNGKEYKCKVSNKGLPASIEKTISKTKGQPREPQVYTLPPSREEMTKNQVSLTCLVKGFYPSDIAVEWESNGQPENNYKTTPPMLDSDGSFFLYSKLTVDKSRWQQGNVFSCSVMHEALHNHYTQKSLSLSPGK light: not shown
binds	341-G2Ser[F296Y] (antibody, human IgG2, kappa, Made from the 341-G2Ser expression vector; also called N5KG2Ser-341-F296Y) heavy: QVQLQQSGPGLVKPSQTLSLTCAISGDSVSSNSATWNWIRQSPSRDLEWLGRTYYRSKWYRDYVGSVKSRIIINPDTSNNQFSLQLNSVTPEDTAIYYCTRAQWLGGDYPYYYSMDVWGQGTTVTVSSASTKGPSVFPLAPCSRSTSESTAALGCLVKDYFPEPVTVSWNSGALTSGVHTFPAVLQSSGLYSLSSVVTVPSSNFGTQTYTCNVDHKPSNTKVDKTVERKCCVECPPCPAPPVAGPSVFLFPPKPKDTLMISRTPEVTCVVVDVSHEDPEVQFNWYVDGVEVHNAKTKPREEQYNSTFRVVSVLTVVHQDWLNGKEYKCKVSNKGLPASIEKTISKTKGQPREPQVYTLPPSREEMTKNQVSLTCLVKGFYPSDIAVEWESNGQPENNYKTTPPMLDSDGSFFLYSKLTVDKSRWQQGNVFSCSVMHEALHNHYTQKSLSLSPGK light: not shown
